± gives the uncertainty stated by the source.
Assay: self-splicing fitness, log relative to wild type (ln ratio); higher = more splicing; Tetrahymena group I intron in knt gene, E. coli kanamycin selection, DiMSum; sequences stand for … in CUCUCU…GGAGGGAAAAGUUAUCAGGCAUGCACCUGGUAGCUAGUCUUUAAACCAAUAGAUUGCAUCGGUUUAAAAGGCAAGACCGUCAAAUUGCGGGAAAGGGGUCAACAGCCGUUCAGUACCAAGUCUCAGGGGAAACUUUGAGAUGGCCUUGCAAAGGGUAUGGUAAUAAGCUGACGGACAUGGUCCUAACCACGCAGCCAAGUCCUAAGUCAACAGAUCUUCUGUUGAUAUGGAUGCAGUUCACAGACUAAAUGUCGGUCGGGGAAGAUGUAUUCUUCUCAUAAGAUAUAGUCGGACCUCUCCUUAAUGGGAGCUAGCGGAUGAAGUGAUGCAACACUGGAGCCGCUGGGAACUAAUUUGUAUGCGAAAGUAUAUUGAUUAGUUUUGGAGUACUCGUGGUCG
Outline: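 Fitness was computed with DiMSum as the error-weighted combination of replicate fold changes, kanamycin versus none, each normalised to wild type. The library randomised all eight intron nucleotides of the P1ex region, with the intron placed in the knt kanamycin-resistance gene on pET-22b(+) in E. coli BL21(DE3). Six replicate transformations were grown overnight at 37°C or 30°C on LB agar with or without 25 μg/mL kanamycin, plus 100 μg/mL carbenicillin, 50 μM IPTG and 0.2% rhamnose. Pooled colonies were amplicon-sequenced on an Illumina HiSeq 2500.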

Sequence | self-splicing fitness (ln) (37 °C) | self-splicing fitness (ln) (30 °C)
UAAUAGCAAUAUUACGCUUC | -1.72 ± 0.29 | –
GUUUAGCAAUAUUACGACUG | -0.416 ± 0.23 | -4.08 ± 0.39
CUCGAGCAAUAUUACGUGGU | -2.49 ± 0.18 | -3.41 ± 0.16
GUGAAGCAAUAUUACGGCUA | 0.322 ± 0.12 | -0.323 ± 0.1
UAAUAGCAAUAUUACGGGCU | -2.16 ± 0.19 | -3.28 ± 0.27
GUUUAGCAAUAUUACGACCA | -0.943 ± 0.35 | -1.56 ± 0.35
GCUUAGCAAUAUUACGGUGG | -2.38 ± 0.28 | -2.24 ± 0.19
UGCGAGCAAUAUUACGUCCG | -0.194 ± 0.31 | -3.31 ± 0.4
UCCUAGCAAUAUUACGAAAU | -0.807 ± 0.42 | -3.19 ± 0.47
CAAAAGCAAUAUUACGCCGA | -2.49 ± 0.25 | -2.91 ± 0.23
AAAUAGCAAUAUUACGUCAG | -1.41 ± 0.11 | -2.52 ± 0.12
GCUCAGCAAUAUUACGUUGU | -0.0979 ± 0.057 | -0.847 ± 0.042
UGGAAGCAAUAUUACGACUG | -0.683 ± 0.24 | -1.26 ± 0.24
UGCCAGCAAUAUUACGUAAU | -2.16 ± 0.18 | -2.36 ± 0.14
UCUAAGCAAUAUUACGGGCA | -0.441 ± 0.12 | -1.42 ± 0.12
ACUGAGCAAUAUUACGUUAU | -2.89 ± 0.2 | -3.12 ± 0.15
AGUGAGCAAUAUUACGCGCU | -1.83 ± 0.39 | –
GUUCAGCAAUAUUACGAUCG | -0.548 ± 0.16 | -0.518 ± 0.13
CGGUAGCAAUAUUACGGGGG | -3.01 ± 0.43 | -3.21 ± 0.22
UUCCAGCAAUAUUACGAGAA | -0.442 ± 0.16 | -1.79 ± 0.17
GCGUAGCAAUAUUACGGCUG | -1.39 ± 0.49 | -3.74 ± 0.42
ACUUAGCAAUAUUACGUAAG | -0.844 ± 0.1 | -0.131 ± 0.081

Sequence | self-splicing fitness (ln) (37 °C) | self-splicing fitness (ln) (30 °C)
UCGGAGCAAUAUUACGUGCA | -1.03 ± 0.25 | -0.902 ± 0.17
ACUCAGCAAUAUUACGGAGC | -1.76 ± 0.17 | -3.55 ± 0.21
ACCAAGCAAUAUUACGUCAU | -1.71 ± 0.09 | -3.16 ± 0.096
UCCAAGCAAUAUUACGACAC | -1.42 ± 0.38 | -2.35 ± 0.31
ACCUAGCAAUAUUACGGCAA | 0.02 ± 0.14 | -1.41 ± 0.17
GAGAAGCAAUAUUACGUAAC | -0.536 ± 0.12 | -1.62 ± 0.11
AACGAGCAAUAUUACGGCCG | -1.07 ± 0.21 | -1.2 ± 0.12
CUAUAGCAAUAUUACGGCAA | -2.63 ± 0.45 | -3.31 ± 0.29
UUCCAGCAAUAUUACGCGCU | – | -3.9 ± 0.3
CGUGAGCAAUAUUACGGGUC | -2.2 ± 0.19 | -4 ± 0.24
UGAUAGCAAUAUUACGGUAG | -1.12 ± 0.17 | -2.38 ± 0.2
UGUUAGCAAUAUUACGAAUC | – | -2.97 ± 0.48
UCGUAGCAAUAUUACGGUGG | -1.31 ± 0.086 | -2.84 ± 0.098
UGCUAGCAAUAUUACGGAUG | -0.268 ± 0.1 | -0.534 ± 0.086
UAGCAGCAAUAUUACGUGCU | -1.9 ± 0.16 | -1.12 ± 0.12
GCGGAGCAAUAUUACGUAGA | -2.24 ± 0.35 | -3.84 ± 0.43
CACUAGCAAUAUUACGCGCG | -0.054 ± 0.14 | -1.1 ± 0.11
CUUAAGCAAUAUUACGCGAA | -2.82 ± 0.34 | -2.82 ± 0.24
CGUAAGCAAUAUUACGCUGC | -2.3 ± 0.39 | –
CUUAAGCAAUAUUACGAACU | -2.61 ± 0.38 | –
UUUCAGCAAUAUUACGCUGA | -2.24 ± 0.42 | -3.32 ± 0.47
UGGCAGCAAUAUUACGGUGG | -0.811 ± 0.11 | -0.928 ± 0.079
